Drawing on patent US20240241109A1 (NATIONAL JEWISH HEALTH, published 2024), this text covers Kd, koff and kon for 1 molecule.

Read-outs that look alike come from different tables or passages of the source.

Test [1] addresses T1, wildtype SARS-COV-2 spike receptor binding domain (RBD) (SARS-COV-2 (wildtype), UniProt P0DTC2 320-541). Kind of test: SPR (Biacore). Background: SPR reads the build-up and loss of mass on a sensor chip optically.
The target of test [2] is T1, wildtype SARS-COV-2 spike receptor ….

B1: Etesevimab (LY-CoV016) (antibody, V domains shown)
VH: EVQLVESGGGLVQPGGSLRLSCAASGFTVSSNYMSWVRQAPGKGLEWVSVIYSGGSTFYADSVKGRFTISRDNSMNTLFLQMNSLRAEDTAVYYCARVLPMYGDYLDYWGQGTLVTVSS
VL: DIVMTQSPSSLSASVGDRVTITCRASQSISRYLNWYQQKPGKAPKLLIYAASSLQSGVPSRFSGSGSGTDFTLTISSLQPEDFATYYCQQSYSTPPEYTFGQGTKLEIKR
Molecule B1 registered a Kd in test [1] of 6.8 nM. In test [2], this molecule showed a Kd of 6.83 nM, a koff of 0.00988 s⁻¹ and a kon of 1.46e+06 M⁻¹ s⁻¹.

Usually Kd stands for the constant that tells how readily two partners part at equilibrium. High values mean weaker binding, low ones tighter binding. As a reminder, the koff is a measure of how fast the partners let go of each other. A high value points to a short-lived complex. Broadly, the kon is a measure of how fast the partners come together. Read a low kon as slower complex formation.
